test: soluble on expression in E. coli; label from the status in PepcDB or PDB records

Q: Which “soluble on expression in E. coli” value does the source give for “MPSIRLADLAQQLDAELHGDGDIVITGVASMQSAQTGHITFMVNPKYREHLGLCQASAVVMTQDDLPFAKSAALVVKNPYLTYARMAQILDTTPQPAQNIAPSAVIDATAKLGNNVSIGANAVIESGVELGDNVIIGAGCFVGKNSKIGAGSRLWANVTIYHEIQIGQNCLIQSGTVVGADGFGYANDRGNWVKIPQIGRVIIGDRVEIGACTTIDRGALDDTIIGNGVIIDNQCQIAHNVVIGDNTAVAGGVIMAGSLKIGRYCMIGGASVINGHMEICDKVTVTGMGMVMRPITEPGVYSSGIPLQPNKVWRKTAALVMNIDDMSKRLKSLERKVNQQD” here?
A: Its value is “soluble”.

Q: For “MDWKKIYEDRTCTADEAVKSIKSGDRVLFAHCVAEPPVLVEAMVANAAAYKNVTVSHMVTLGKGEYSKPEYKENFTFEGWFTSPSTRGSIAEGHGQFVPVFFHEVPSLIRKDIFHVDVFMVMVSPPDHNGFCCVGVSSDYTMQAIKSAKIVLAEVNDQVPVVYGDTFVHVSEIDKFVETSHPLPEIGLPKIGEVEAAIGKHCASLIEDGSTLQLGIGAIPDAVLSQLKDKKHLGIHSEMISDGVVDLYEAGVIDCSQKSIDKGKMAITFLMGTKRLYDFAANNPKVELKPVDYINHPSVVAQCSKMVCINACLQVDFMGQIVSDSIGTKQFSGVGGQVDFVRGASMSIDGKGKAIIAMPSVAKKKDGSMISKIVPFIDHGAAVTTSRNDADYVVTEYGIAEMKGKSLQDRARALINIAHPDFKDELKAEFEKRFNAAFSAWSHPQFEK”, which “soluble on expression in E. coli” value is on record?
A: Its value is “soluble”.

Q: With “MSLPQFSVDLCLFDLDGTIVSTTTAAESAWKKLCRQHGVDPVELFKHSHGARSQEMMKKFFPKLDNTDNKGVLALEKDMADNYLDTVSLIPGAENLLLSLDVDTETQKKLPERKWAIVTSGSPYLAFSWFETILKNVGKPKVFITGFDVKNGKPDPEGYSRARDLLRQDLQLTGKQDLKYVVFEDAPVGIKAGKAMGAITVGITSSYDKSVLFDAGADYVVCDLTQVSVVKNNENGIVIQVNNPLTRDEGHHHHHH” as the sequence, how does the “soluble on expression in E. coli” value read?
A: The value was “soluble”.

Q: Which “soluble on expression in E. coli” value does the source give for “MLAFKVVISDKEKSVQMEVDPSESRGLIGLTIGDEFDGSIIGLSGYKLKITGGSDKNGFPMKKTVPGARRIRSLVSGGVGYKPRRDGERRRKTFRGNTISDDIVQINTVVIEKLEHHHHHH” here?
A: The value was “not soluble”.

Q: For “MGSDKIHHHHHHMSIQTPIRGLRSFCVASKCLSFKHAAAQLFLTPSAVSHQIKQLEEQLGFMLFKRNTRSIELTSSGKQFYQSIQPIIHQLESTISEFTHNQQNHTIVISLPEFFASELFIPRLSEWSEKNPSINLQLETVKAGSEPSQIADLSIVLANGKPNASIVQELFPIRYAAACNKKLYKKLKNSGFKALKNTPLILHRSRPWSWHQWAENLGVNDFDPKQIIQFDSMFGVARAAQQGMGIALVPLPMSKTWFSEQLLVKLFDEELNTNDRYYLIQHENMESKVELTLFANWVKETFMTDYL”, which “soluble on expression in E. coli” value is on record?
A: Its value is “not soluble”.

Q: Which “soluble on expression in E. coli” value does the source give for “MTNLETYFKNSQPLNEYIDGMKTNQDTVLSIYQSFELPEDDSRIKKIKEMNYSKVLVITEDWCGDAMMNLPILKHISEALNLEVRVFHRDDDTKLIDQYLTNGKSRAIPIFVFLNDQFEQETVWGPRANEVQKFVTDVRADKLPSKDHPDYADLEKETHLVISNRYKTDASFWKAVYNSILNKLENK” here?
A: The value was “not soluble”.

Q: Which “soluble on expression in E. coli” value does the source give for “MGSDKIHHHHHHMAKAPKMAFVCDDCGLDYPRWQGQCRCGAWNSLVEMKLSASKSSTSRSSVLGYAGAVGGGSKKLSEVESEDAEKRLTEIGELDRVLSGGLTTGSVNIISGDPGAGKTTLLSDLVARMSQSMASLYCTAEESLSQFKNRVNRLKLNYNEDNLFLLSETSVEAIIEELEAKQIKFAVIDSIQAVVTDAANGSPGSPSQVKTAAQAFTQYCKKNNVTMFIIAHVNKNNEIAGPQTLVHIVDSLLHIDTNDGQIRTLRANKNRFGDVDTVGIFRMSERGMISVDNPSEIFLSGSTTESPGSTITCIRKGNRNLLLEIQCLTTETESEFPQRVCVGLNMNRIKMLTGILRKHTKTKIFHDTFFNIVGGLKIDESETCIDLALVTALLSSLNDFVVPRTTCIMGELSLNGDVRPIDSGVPRVKEAAQHGFTEIFIPFRNYHKTMEGLGAKIIPVKTIHELLELIN” here?
A: Its value is “not soluble”.

Q: With “MGHHHHHHGGHMSLQRGCDGCKQNQSREPATIDGFMPKAQESIMGQQKQRNRRWVLASRPHGAPVPENFRLEEDDVATPGEGQVLLRTVYLSLDPYMRGRMSDEPSYSPPVDIGGVMVGGTVSRVVESNHPDYQSGDWVLGYSGWQDYDISSGDDLVKLGDHPQNPSWSLGVLGMPGFTAYMGLLDIGQPKEGETLVVAAATGPVGATVGQIGKLKGCRVVGVAGGAEKCRHATEVLGFDVCLDHHADDFAEQLAKACPKGIDIYYENVGGKVFDAVLPLLNTSARIPVCGLVSSYNATELPPGPDRLPLLMATVLKKRIRLQGFIIAQDYGHRIHEFQREMGQWVKEDKIHYREEITDGLENAPQTFIGLLKGKNFGKVVIRVAGDDEGGS” as the sequence, how does the “soluble on expression in E. coli” value read?
A: Its value is “soluble”.

Q: Which “soluble on expression in E. coli” value does the source give for “MDSKILTMFNQGKHEEAIQAAVKAIDAAPDDPKRYAMLATMLISIKALDQAGELLAKARQLFPEDLELQYTAGLFAYAQADFAAAVSWFAKVRTDQTLKNDATYMLALSYQQAGQPTKALAFALTAHDLAPKQLDTALLAADLLMANDVFDAAARVLKPLLATEQPQVLFTYGMALSAAGKDGSHYLNKAKALDPKGYDQKANIVADINRFLRLQEGLEHHHHHH” here?
A: Its value is “not soluble”.

Q: Which “soluble on expression in E. coli” value does the source give for “LVPEAPAPFEEPLPPEATDQWQDRALCAQTDPEAFFPEKGGSTREAKKICMGCEVRHECLEYALAHDERFGIWGGLSERERRRLKRGII” here?
A: Its value is “soluble”.

Q: Which “soluble on expression in E. coli” value does the source give for “MSLGGSIKSPQSLTIDIIKRDYLNFKNKKILSFKDIKPKYDSQSDYHGNAIYYFMFYNKLKEFENIQNEKFKIKKEILKSYIIIIDEINRGNVSKIFGELITLIEPSKRIGEKEELKVTLPYSGEKFGVPKNVYIIGTMNTADRSITSLDTALRRRFEFVEMMPDVSKLSMDCEGINLQELLKAINTRIEYLLDREKTIGHAFFVSVENLEDLKKVFQNKIIPLLQEYFYNDYALINAVLNDNDMIFEDKKDDKYLQKIKNLDSVNSERSIYNIASFDDKIWDKIEIYQAIYNDEIANKLKNEGHHHHHH” here?
A: The value was “not soluble”.

Q: Which “soluble on expression in E. coli” value does the source give for “SHMQLKFAECLEKKVDMSKVNLEVIKPWITKRVTEILGFEDDVVIEFIFNQLEVKNPDSKMMQINLTGFLNGKNAREFMGELWPLLLSAQENIAGIPSAFLELKKEEIKQR” here?
A: Its value is “soluble”.

Q: With “MKTTGAGQLGTQLGKIKTSLRQQIHTGVVSQGQKLPSERELSELFSTTRITIKDALVSLETEGLIYREERRGWYVSPERICYNPLSRSHFHQMIREQHRIAATQLISVRSEMAAGDYAKALDIEQMTPIHIIERLRCIDGRAVLFVENVLKASLFDGILAENLTMSLTGIYREKYGYETMRSRFDVIPTSAPAHVAKALNLAEGQPVLKICRVNYKQDGELMDCELEYWRPDAVMIRIDSVG” as the sequence, how does the “soluble on expression in E. coli” value read?
A: The value was “not soluble”.

Q: With “MRALGQNPTNAEVLKVLGNPKSDEMNVKVLDFEHFLPMLQTVAKNKDQGTYEDYVEGLRVFDKEGNGTVMGAEIRHVLVTLGEKMTEEEVEMLVAGHEDSNGCINYEELVRMVLNG” as the sequence, how does the “soluble on expression in E. coli” value read?
A: The value was “soluble”.

Q: Which “soluble on expression in E. coli” value does the source give for “MGSDKIHHHHHHMEFEVKKTFGKARLGVMKLHHGAVETPVFMPVGTNASVKLLTPRDLEEAGAEIILSNTFHLMLKPGVEIIKLHRGLHNFMGWKRPILTDSGGFQVFSLPKIRIDDEGVVFRSPIDGSKVFLNPEISMEVQIALGSDICMVFDHCPVPDADYEEVKEATERTYRWALRSKKAFKTENQALFGIVQGGIYPDLRRESALQLTSIGFDGYAIGGLSIGEERSLTLEMTEVTVEFLPEDKPRYFMGGGSPELILELVDRGVDMFDSVFPTRIARHGTALTWNGKLNLKASYNKRSLEPVDERCGCYTCKNFTRSYIHHLFDRGEVLGQILLTIHNINFMISLMKEVRRSIESGTFKELKSKVVEVYSSGGVNV” here?
A: Its value is “soluble”.

Q: For “MYMSSLQSTRERVLGTPRRRYKVLVAKMGLDGHDRGAKVVARALRDAGFEVVYTGLRQTPEQVAMAAVQEDVDVIGVSILNGAHLHLMKRLMAKLRELGADDIPVVLGGTIPIPDLEPLRSLGIREIFLPGTSLGEIIEKVRKLAEEKRMREEAEASEQVGQA”, which “soluble on expression in E. coli” value is on record?
A: Its value is “soluble”.

Reference: the DeepSol protein solubility set
